From PMC4126377 come the findings set out here.

In this experiment the target is α- and β-tropomyosin. Kind of experiment: GST pull-down. As to conditions: all curves start at 1 at 7.5 µg, read off a plot.

For “GST-nebulin super repeat 9 (S9), wild type (from UniProt P20929-3) p.Glu2431Lys”, the response (relative intensity) is, setting by setting: (sub-panel NEB ex54 (super repeat 9), curve 54m, 15 µg α- and β-tropomyosin, parent: est. 1.25) 1.27; (sub-panel NEB ex54 (super repeat 9), curve 54m, 30 µg α- and β-tropomyosin, parent: est. 1.30) 1.36; (sub-panel NEB ex54 (super repeat 9), curve 54m, 60 µg α- and β-tropomyosin, parent: est. 1.30) 1.37.

Regarding “GST-nebulin super repeat 18 (S18), wild type (from UniProt P20929-3) p.Ser6366Ile”, the response (relative intensity) amounted to 1.08 (sub-panel NEB ex122 (super repeat 18), curve 122m, 15 µg α- and β-tropomyosin, parent: est. 1.07); 1.19 (sub-panel NEB ex122 (super repeat 18), curve 122m, 30 µg α- and β-tropomyosin, parent: est. 1.18); 1.2 (sub-panel NEB ex122 (super repeat 18), curve 122m, 60 µg α- and β-tropomyosin, parent: est. 1.18).

For the substance “GST-nebulin super repeat 22 (S22), wild type (from UniProt P20929-3) p.Thr7382Pro”, the response (relative intensity) was found to be 1.12 (sub-panel NEB ex151 (super repeat 22), curve 151m, 15 µg α- and β-tropomyosin, parent: est. 1.28); 1.17 (sub-panel NEB ex151 (super repeat 22), curve 151m, 30 µg α- and β-tropomyosin, parent: est. 1.33); 1.18 (sub-panel NEB ex151 (super repeat 22), curve 151m, 60 µg α- and β-tropomyosin, parent: est. 1.34).
